Source: patent publication US20220088075A1 (University of Pennsylvania, published 2022)

Experiments:
[1] = biological target: T1, hEGFRvIII (human epidermal growth factor receptor variant III) on transiently transfected HEK293F cells (human, UniProt P00533 25-1210); experiment: FACS, purified His-tagged scFv on HEK293F cells transiently transfected with hEGFRvIII, anti-poly His PE
T1 construct: whole, on cells; also called human EGFRvIII
Experimental: (§1) HEK293F suspension cells were transiently transfected with either wild type hEGFR or hEGFRvIII and were harvested 2 days after transfection. Approximately 5e5 cells/per well were transferred to a BD Falcon 96 well plate. The cells were spun down at 900 rpm (Sorval Legend XT centrifuge) for 3 minutes. The supernatant was removed. Anti-EGFRvIII scFv protein samples were diluted in DPBS with 5% FBS. The samples were added into the wells, mixed and incubated for 1 hour. The cells were washed twice in the DPBS with 5% FBS. The cells were incubated with anti-poly His PE (R&D) for 1 hour, washed twice before FACS analysis (LSRII from BD Biosciences).

[2] = biological target: T2, wild type hEGFR (human EGFR wild type) on transiently transfected HEK293F cells (human, UniProt P00533 25-1210); experiment: FACS, purified His-tagged scFv on HEK293F cells transiently transfected with wild type hEGFR, anti-poly His PE
T2 construct: whole, on cells; also called wild type EGFR
Experimental: as §1

[3] = biological target: T3, EGFRvIII-Fc fusion protein (UniProt P00533 25-645, limits assumed); experiment: flow cytometry, Jurkat E6 cells electroporated with CAR vector, titrated EGFRvIII-Fc, PE anti-human IgG Fc
T3 construct: not shown: detected with PE anti-human IgG Fc
Experimental: Jurkat E6 cells were electroporated with either CAR9 vector or CAR10 vector using Amaxa Cell Line Nucleofector Kit V (Lonza, Colgne AG, Germany) and program X-001. One day after the transfection, 0.5×10⁶ cells were placed into each well of a V-shape 96 well plate (Greiner Bio-One, Germany) in 0.2 ml FACS buffer (DPBS buffer containing 5% FBS) and incubated for 10 minutes at room temperature. Cells were then spun down and resuspended in 0.2 ml of the FACS buffer with different concentrations of EGFRvIII-Fc or EGFRwt-Fc and incubated at 4° C. for 30 minutes. Cells were then washed with FACS buffer three times, and incubated with 0.2 ml of the FACS buffer with 2 μl of PE anti-human IgG Fc (Jackson ImmunoResearch Laboratories, West Grove, Pa.) for 30 minutes at 4° C. in the dark. After washing with 0.2 ml of FACS buffer three times, cells were analyzed on a LSRII (BD Biosciences, San Jose, Calif.) machine using the FACSDiva software (BD Biosciences, San Jose, Calif.). Immunofluorescence staining was analyzed as the relative log fluorescence of live cells, and the percentage of the PE positive cells were measured.

B1: CAR8 soluble scFv (humanized anti-EGFRvIII scFv, VK2-VH1) (scFv)
scFv: DVVMTQSPLSLPVTLGQPASISCKSSQSLLDSDGKTYLNWLQQRPGQSPRRLISLVSKLDSGVPDRFSGSGSGTDFTLKISRVEAEDVGVYYCWQGTHFPGTFGGGTKVEIKGGGGSGGGGSGGGGSGGGGSEIQLVQSGAEVKKPGATVKISCKGSGFNIEDYYIHWVQQAPGKGLEWMGRIDPENDETKYGPIFQGRVTITADTSTNTVYMELSSLRSEDTAVYYCAFRGGVYWGQGTTVTVSSGSHHHHHHHH
notes: also called CAR8 scFv
[1]
  binding result: binds
[2]
  binding result: no binding

B2: CAR10 (chimeric antigen receptor with anti-EGFRvIII clone 139 scFv), expressed on Jurkat E6 cells or primary human T cells (other)
chain: DIQMTQSPSSLSASVGDRVTITCRASQGIRNNLAWYQQKPGKAPKRLIYAASNLQSGVPSRFTGSGSGTEFTLIVSSLQPEDFATYYCLQHHSYPLTSGGGTKVEIKRTGSTSGSGKPGSGEGSEVQVLESGGGLVQPGGSLRLSCAASGFTFSSYAMSWVRQAPGKGLEWVSAISGSGGSTNYADSVKGRFTISRDNSKNTLYLQMNSLRAEDTAVYYCAGSSGWSEYWGQGTLVTVSSTTTPAPRPPTPAPTIASQPLSLRPEACRPAAGGAVHTRGLDFACDIYIWAPLAGTCGVLLLSLVITLYCKRGRKKLLYIFKQPFMRPVQTTQEEDGCSCRFPEEEEGGCELRVKFSRSADAPAYKQGQNQLYNELNLGRREEYDVLDKRRGRDPEMGGKPRRKNPQEGLYNELQKDKMAEAYSEIGMKGERRRGKGHDGLYQGLSTATKDTYDALHMQALPPR
[3]
  fold lower binding compared to CAR9: ~40 fold

B3: CAR1 soluble scFv (humanized anti-EGFRvIII scFv, VH1-VK4) (scFv)
scFv: EIQLVQSGAEVKKPGATVKISCKGSGFNIEDYYIHWVQQAPGKGLEWMGRIDPENDETKYGPIFQGRVTITADTSTNTVYMELSSLRSEDTAVYYCAFRGGVYWGQGTTVTVSSGGGGSGGGGSGGGGSGGGGSDVVMTQSPDSLAVSLGERATINCKSSQSLLDSDGKTYLNWLQQKPGQPPKRLISLVSKLDSGVPDRFSGSGSGTDFTLTISSLQAEDVAVYYCWQGTHFPGTFGGGTKVEIKGSHHHHHHHH
notes: not tied in words; also called CAR1 scFv
[1]
  binding result: binds
[2]
  binding result: no binding

B4: CAR2 soluble scFv (humanized anti-EGFRvIII scFv, VK4-VH1) (scFv)
scFv: DVVMTQSPDSLAVSLGERATINCKSSQSLLDSDGKTYLNWLQQKPGQPPKRLISLVSKLDSGVPDRFSGSGSGTDFTLTISSLQAEDVAVYYCWQGTHFPGTFGGGTKVEIKGGGGSGGGGSGGGGSGGGGSEIQLVQSGAEVKKPGATVKISCKGSGFNIEDYYIHWVQQAPGKGLEWMGRIDPENDETKYGPIFQGRVTITADTSTNTVYMELSSLRSEDTAVYYCAFRGGVYWGQGTTVTVSSGSHHHHHHHH
notes: also called CAR2 scFv
[1]
  binding result: binds
[2]
  binding result: no binding

B5: CAR3 soluble scFv (humanized anti-EGFRvIII scFv, VH5-VK2) (scFv)
scFv: EIQLVQSGAEVKKPGESLRISCKGSGFNIEDYYIHWVRQMPGKGLEWMGRIDPENDETKYGPIFQGHVTISADTSINTVYLQWSSLKASDTAMYYCAFRGGVYWGQGTTVTVSSGGGGSGGGGSGGGGSGGGGSDVVMTQSPLSLPVTLGQPASISCKSSQSLLDSDGKTYLNWLQQRPGQSPRRLISLVSKLDSGVPDRFSGSGSGTDFTLKISRVEAEDVGVYYCWQGTHFPGTFGGGTKVEIKGSHHHHHHHH
notes: also called CAR3 scFv
[1]
  binding result: binds
[2]
  binding result: no binding

B6: CAR4 soluble scFv (humanized anti-EGFRvIII scFv, VK2-VH5) (scFv)
scFv: DVVMTQSPLSLPVTLGQPASISCKSSQSLLDSDGKTYLNWLQQRPGQSPRRLISLVSKLDSGVPDRFSGSGSGTDFTLKISRVEAEDVGVYYCWQGTHFPGTFGGGTKVEIKGGGGSGGGGSGGGGSGGGGSEIQLVQSGAEVKKPGESLRISCKGSGFNIEDYYIHWVRQMPGKGLEWMGRIDPENDETKYGPIFQGHVTISADTSINTVYLQWSSLKASDTAMYYCAFRGGVYWGQGTTVTVSSGSHHHHHHHH
notes: also called CAR4 scFv
[1]
  binding result: binds
[2]
  binding result: no binding

B7: CAR5 soluble scFv (humanized anti-EGFRvIII scFv, VH1-VK2) (scFv)
scFv: EIQLVQSGAEVKKPGATVKISCKGSGFNIEDYYIHWVQQAPGKGLEWMGRIDPENDETKYGPIFQGRVTITADTSTNTVYMELSSLRSEDTAVYYCAFRGGVYWGQGTTVTVSSGGGGSGGGGSGGGGSGGGGSDVVMTQSPLSLPVTLGQPASISCKSSQSLLDSDGKTYLNWLQQRPGQSPRRLISLVSKLDSGVPDRFSGSGSGTDFTLKISRVEAEDVGVYYCWQGTHFPGTFGGGTKVEIKGSHHHHHHHH
notes: also called CAR5 scFv
[1]
  binding result: binds
[2]
  binding result: no binding
